The values below come from PMC6894070, “The Plasmodium falciparum Hsp70-x chaperone assists the heat stress response of the malaria parasite” (The FASEB Journal, 2019).

The target of test [1] is Plasmodium falciparum Hsp70-x (PfHsp70-x), full-length construct aa 25-679 (P. falciparum, UniProt K7NTP5 25-679). Briefly: cell-based or functional assay.
Test [2] has as its target T1, human heat shock cognate protein 70 (Hsc70), full length (human, UniProt P11142 1-646).
T1 construct: also called HSPA8; heat shock protein family A (hspa) member 8
Briefly: NMR titration; 15N-labelled PFA0660wJ titrated with unlabelled chaperone; HSQC peak intensity changes; 25°C; 20 mM sodium phosphate pH 7.4, 150 mM NaCl, 2 mM DTT. Conditions: both partners purified.

T1 sequence (P11142 whole entry): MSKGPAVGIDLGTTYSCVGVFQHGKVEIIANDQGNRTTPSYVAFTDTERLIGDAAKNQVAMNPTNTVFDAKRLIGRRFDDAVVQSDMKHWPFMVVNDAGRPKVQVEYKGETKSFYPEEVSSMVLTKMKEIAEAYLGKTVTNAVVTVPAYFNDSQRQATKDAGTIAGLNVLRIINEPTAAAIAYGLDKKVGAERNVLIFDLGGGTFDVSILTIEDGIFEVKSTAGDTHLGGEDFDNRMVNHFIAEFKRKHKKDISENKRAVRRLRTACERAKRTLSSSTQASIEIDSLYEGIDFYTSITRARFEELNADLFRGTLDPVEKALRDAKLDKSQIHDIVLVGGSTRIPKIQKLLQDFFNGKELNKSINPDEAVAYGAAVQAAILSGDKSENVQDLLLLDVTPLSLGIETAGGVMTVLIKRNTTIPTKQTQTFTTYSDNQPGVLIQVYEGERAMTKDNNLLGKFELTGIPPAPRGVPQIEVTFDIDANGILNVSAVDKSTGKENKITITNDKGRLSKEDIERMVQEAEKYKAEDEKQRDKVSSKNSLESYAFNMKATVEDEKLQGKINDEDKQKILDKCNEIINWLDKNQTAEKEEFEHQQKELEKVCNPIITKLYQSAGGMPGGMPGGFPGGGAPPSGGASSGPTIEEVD

B1: J-domain of P. falciparum Hsp40 cochaperone PFA0660w (PFA0660wJ), aa 81-148 (domain or fragment, UniProt Q8I2E1 81-148, looked up)
chain: MDYYTLLGVDKGCSEDDLRRAYLKLAMKWHPDKHVNKGSKVEAEEKFKNICEAYSVLSDNEKRVKYDL
notes: PFA0660w, P. falciparum, pf3d7_0113700, UniProt Q8I2E1, J-domain aa 81-148; codon-optimized synthetic DNA; 15N-labelled (or 13C,15N-labelled) in the NMR assays; unlabelled in the ATP hydrolysis assays; also called PFA0660w J-domain; not shown: His6, N-terminal, cleaved
As for B1, the “fold change in ATP hydrolysis activity of PfHsp70-x upon titration of the J-domain (5 μM chaperone)” value in test [1] is roughly 2 fold. The binding result in test [2] is given as “binds”.
